Laboratory results from US20210063414A1, “METHODS FOR PREVENTING AND/OR TREATING BONE LOSS CONDITIONS BY MODULATING IRISIN” (Dana-Farber Cancer Institute, Inc., priority 2018, published 2021).

Columns and labels:
Assay in all cases: Crosslinking/co-immunoprecipitation/mass spectrometry (TMT quantitative proteomics) to identify irisin receptors
Type in all cases: binding
[1] = target: T1, MLO-Y4 cell surface proteins (Mus musculus, UniProt P08249); settings: co-precipitated protein Mdh2 (MDHM_MOUSE)
T1 construct: endogenous in cells; host or cells: MLO-Y4
T1 sequence (P08249 25-338): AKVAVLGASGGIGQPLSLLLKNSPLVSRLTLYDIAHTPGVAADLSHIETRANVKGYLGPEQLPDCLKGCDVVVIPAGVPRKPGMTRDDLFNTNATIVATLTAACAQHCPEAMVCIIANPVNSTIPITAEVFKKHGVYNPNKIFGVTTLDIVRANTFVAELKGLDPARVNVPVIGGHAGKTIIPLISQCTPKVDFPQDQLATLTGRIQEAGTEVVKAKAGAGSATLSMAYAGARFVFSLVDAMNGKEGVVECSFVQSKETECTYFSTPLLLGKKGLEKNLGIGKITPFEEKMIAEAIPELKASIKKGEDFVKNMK
Outline: (§1)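 Relative protein abundance came from 6-plex TMT MS3 quantitation on an Orbitrap Fusion Lumos, after in-gel trypsin digestion of Coomassie-stained SDS-PAGE lanes. Input was a Ni-NTA pulldown (250 mM imidazole elution) of lysates from murine MLO-Y4 cells. These cells were treated on ice with His-tagged irisin or adipsin (10 nM, 20 min) in serum-free medium, then crosslinked with 1.5 mM DTSSP for 30 min.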

[2] = target: T2, MLO-Y4 cell surface proteins (Mus musculus, UniProt Q08189); settings: co-precipitated protein Tgm3 (TGM3_MOUSE)
T2 construct: endogenous in cells; host or cells: MLO-Y4
T2 sequence (Q08189 1-693): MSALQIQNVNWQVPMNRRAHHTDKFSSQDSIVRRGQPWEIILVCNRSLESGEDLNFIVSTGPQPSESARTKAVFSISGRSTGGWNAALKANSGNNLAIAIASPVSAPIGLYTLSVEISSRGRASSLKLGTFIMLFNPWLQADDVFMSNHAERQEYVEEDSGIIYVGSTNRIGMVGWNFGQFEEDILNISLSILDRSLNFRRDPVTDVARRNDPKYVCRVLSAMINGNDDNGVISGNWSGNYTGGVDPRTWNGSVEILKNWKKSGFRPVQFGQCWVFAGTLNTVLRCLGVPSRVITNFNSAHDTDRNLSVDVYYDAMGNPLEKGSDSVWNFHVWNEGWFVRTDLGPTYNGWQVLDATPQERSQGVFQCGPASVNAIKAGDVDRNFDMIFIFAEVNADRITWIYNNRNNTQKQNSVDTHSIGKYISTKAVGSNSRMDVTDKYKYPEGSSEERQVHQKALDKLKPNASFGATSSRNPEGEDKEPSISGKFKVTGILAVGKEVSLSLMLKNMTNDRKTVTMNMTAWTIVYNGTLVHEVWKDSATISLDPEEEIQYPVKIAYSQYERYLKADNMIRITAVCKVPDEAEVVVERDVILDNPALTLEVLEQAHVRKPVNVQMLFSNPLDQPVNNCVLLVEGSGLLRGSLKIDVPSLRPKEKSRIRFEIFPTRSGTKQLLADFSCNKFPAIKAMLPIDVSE
Outline: as §1

[3] = target: T3, MLO-Y4 cell surface proteins (Mus musculus, UniProt Q9Z138); settings: co-precipitated protein Ror2 (ROR2_MOUSE)
T3 construct: endogenous in cells; host or cells: MLO-Y4
T3 sequence (Q9Z138 34-944): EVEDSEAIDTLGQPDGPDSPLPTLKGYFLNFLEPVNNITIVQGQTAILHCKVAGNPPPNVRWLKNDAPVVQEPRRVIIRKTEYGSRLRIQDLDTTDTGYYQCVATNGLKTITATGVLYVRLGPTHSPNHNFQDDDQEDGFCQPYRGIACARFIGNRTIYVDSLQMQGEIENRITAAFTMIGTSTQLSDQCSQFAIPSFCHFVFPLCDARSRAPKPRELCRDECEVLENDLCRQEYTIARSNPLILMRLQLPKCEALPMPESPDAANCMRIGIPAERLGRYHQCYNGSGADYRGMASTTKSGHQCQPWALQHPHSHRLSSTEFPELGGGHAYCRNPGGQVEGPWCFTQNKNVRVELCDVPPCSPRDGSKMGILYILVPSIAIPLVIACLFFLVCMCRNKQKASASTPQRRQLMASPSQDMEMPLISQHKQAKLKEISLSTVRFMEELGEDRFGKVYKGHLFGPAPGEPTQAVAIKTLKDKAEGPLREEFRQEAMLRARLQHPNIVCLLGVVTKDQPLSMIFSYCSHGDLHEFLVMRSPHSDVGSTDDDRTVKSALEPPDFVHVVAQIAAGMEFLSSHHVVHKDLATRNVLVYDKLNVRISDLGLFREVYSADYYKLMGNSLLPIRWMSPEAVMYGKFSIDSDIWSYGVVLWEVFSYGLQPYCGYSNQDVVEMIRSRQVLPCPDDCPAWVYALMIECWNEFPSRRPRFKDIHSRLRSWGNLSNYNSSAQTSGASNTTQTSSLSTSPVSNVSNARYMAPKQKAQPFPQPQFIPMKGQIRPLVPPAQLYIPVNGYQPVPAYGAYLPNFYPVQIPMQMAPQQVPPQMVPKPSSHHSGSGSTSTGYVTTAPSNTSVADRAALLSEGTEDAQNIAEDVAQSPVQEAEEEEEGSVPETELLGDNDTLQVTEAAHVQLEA
Outline: as §1

TMT signal-to-noise ratio [1]: 2557.03
TMT signal-to-noise ratio [2]: 274.388
TMT signal-to-noise ratio [3]: 67.6684
Substance: adipsin
